From patent publication US20200010522A1 (SALUBRIS BIOTHERAPEUTICS, published 2020)

Target: T1, monkey HER3 antigen (monkey)
T1 construct: also called HER3 (monkey)
Test: BIAcore (SPR)

- Kd: 397 pM
B1: anti-HER3 mAb/NRG-1 fusion protein (recombinant fusion protein, with Fc mutations) (antibody, human IgG1, kappa)
heavy: QVQLQQWGAGLLKPSETLSLTCAVYGGSFSGYYWSWIRQPPGKGLEWIGEINHSGSTNYNPSLKSRVTISVETSKNQFSLKLSSVTAADTAVYYCARDKWTWYFDLWGRGTLVTVSSASTKGPSVFPLAPSSKSTSGGTAALGCLVKDYFPEPVTVSWNSGALTSGVHTFPAVLQSSGLYSLSSVVTVPSSSLGTQTYICNVNHKPSNTKVDKRVEPKSCDKTHTCPPCPAPEFLGGPAVFLFPPKPKDTLMISRTPEVTCVVVDVSHEDPEVKFNWYVDGVEVHNAKTKPREEQYNSTYRVVSVLTVLHQDWLNGKEYKCKVSNKALPAPIEKTISKAKGQPREPQVYTLPPSREEMTKNQVSLTCLVKGFYPSDIAVEWESNGQPENNYKTTPPVLDSDGSFFLYSKLTVDKSRWQQGNVFSCSVMHEALHAHYTQKSLSLSPGKGGGGSGGGGSSHLVKCAEKEKTFCVNGGECFMVKDLSNPSRYLCKCPNEFTGDRCQNYVMASFYKAEELYQ
light: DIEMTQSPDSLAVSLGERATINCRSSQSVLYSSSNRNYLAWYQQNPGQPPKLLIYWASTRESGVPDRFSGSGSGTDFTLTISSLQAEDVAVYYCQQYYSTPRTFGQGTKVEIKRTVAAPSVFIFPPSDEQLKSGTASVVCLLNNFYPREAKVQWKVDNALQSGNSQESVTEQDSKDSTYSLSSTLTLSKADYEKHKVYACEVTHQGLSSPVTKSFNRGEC
notes: Made in CHO-derived HD-BIOP3 cells; also called the recombinant fusion protein disclosed herein; recombinant anti-HER3 mAb/NRG-1 fusion protein; copies: 2 + 2
